Here are results for seven molecules from US20240279334A1 (AMBERSTONE BIOSCIENCES, published 2024).

Where a chain is given by its changes, count along the chain named.

Experiment [1] concerns the target human CD3 on T cells (Jurkat reporter cells, human primary T cells) (human) (UniProt P07766). Put plainly: cell-based or functional assay.
In experiment [2] the target is T1, recombinant human CD3E (ECD) (human, UniProt P07766 23-126).
T1 construct: extracellular domain; This is the coated antigen of the ELISA; also called extracellular domain of human CD3E
T1 sequence (P07766 23-126): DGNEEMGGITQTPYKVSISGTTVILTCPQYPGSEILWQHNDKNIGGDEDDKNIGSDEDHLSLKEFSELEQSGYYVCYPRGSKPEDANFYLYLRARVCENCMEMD
Put plainly: ELISA with human CD3E; % Binding plotted against pH (6.0 to 7.4), relative to pH 6.0; Fab concentration not shown on the sheet. How it is done:
(§1) The plates were then blocked with 200 μL ELISA assay diluents with BSA after discarding the coating solution and washing three times with washing buffer (pH-adjusted 1×PBS+0.05% Tween). […] The plates were washed three times with pH-adjusted 1×PBS buffer and incubated with horseradish peroxidase (HRP) conjugated with goat anti-human IgG Fc for about 30 minutes (min) to one hour. After washing three times, the bound HRP enzyme was detected by addition of 100 μL/well […] substrate (BioFX Laboratories, MD, USA) for about 1 to 5 min and then the detection of color was done based on 630 nm absorption. The pH-adjusted 1×PBS buffer of about pH 6.0, 6.1, 6.2, 6.3, 6.4, 6.5, 6.6, 6.7, 6.8, 6.9, 7.0, 7.1, 7.2, 7.3, 7.4, 7.5 or 7.6 can be based on a regular PBS buffer that is substantially the same as the well-known Cold Spring Harbor Lab's recipe which comprises 137 mM NaCl, 2.7 mM KCl, 10 mM Na₂HPO₄, 1.8 mM KH₂PO₄, and optionally 1 mM CaCl₂) and 0.5 mM MgCl₂, wherein the buffer's pH is adjusted using HCl or H₃PO₄. Alternatively, the pH-adjusted 1×PBS buffers can be based on a modified PBS recipe that comprises 118-146 mM NaCl, 2.7 mM KCl, 10 mM Na₂HPO₄, 1.8 mM KH₂PO₄, and optionally 1 mM CaCl₂) and 0.1-0.8 mM MgCl₂, iron (0-9 mM), sulfide (0.8-5 mM), and optionally further comprising one or more components selected from the following: 5-15 mM D-glucose, NaHCO₃(5-20 mM), 0.1 mM NEAA (non-essential amino acids), 2-20 mM lactic acid and 0.1-0.5% BSA, wherein the buffer's pH is adjusted using HCl or H₃PO₄.
(In an ELISA, binding on a coated surface is turned into a signal by an enzyme label.)

Experiment [3] addresses T2, extracellular domain of cynomolgus monkey CD3E (cynomolgus monkey, UniProt Q95LI5 22-117).
T2 construct: extracellular domain; This is the coated antigen of the ELISA; also called cyno CD3
T2 sequence (looked up): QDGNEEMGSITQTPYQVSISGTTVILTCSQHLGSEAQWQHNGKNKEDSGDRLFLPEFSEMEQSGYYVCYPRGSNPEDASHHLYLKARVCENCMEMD
As to the kind of experiment: ELISA with monkey CD3E; % Binding plotted against pH (6.0 to 7.4), relative to pH 6.0; Fab concentration not shown on the sheet. How it is done: as §1, with “Alternatively, the pH-adjusted 1×PBS buffers can be based on a modified PBS recipe that comprises 118-146 mM NaCl, 2.7 mM KCl, 10 mM Na₂HPO₄, 1.8 mM KH₂PO₄, and optionally 1 mM CaCl₂) and 0.1-0.8 mM MgCl₂, iron (0-9 mM), sulfide (0.8-5 mM), and optionally further comprising one or more components selected from the following: 5-15 mM D-glucose, NaHCO₃(5-20 mM), 0.1 mM NEAA (non-essential amino acids), 2-20 mM lactic acid and 0.1-0.5% BSA, wherein the buffer's pH is adjusted using HCl or H₃PO₄.” left out

Chain of human CD3 on T cells (Jurkat reporter cells, human primary T cells) (human) (P07766 23-207): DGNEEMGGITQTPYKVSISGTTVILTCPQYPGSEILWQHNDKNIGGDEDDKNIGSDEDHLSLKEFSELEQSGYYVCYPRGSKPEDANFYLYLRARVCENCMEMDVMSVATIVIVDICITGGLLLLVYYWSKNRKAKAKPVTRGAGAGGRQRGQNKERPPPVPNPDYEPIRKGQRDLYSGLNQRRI

B1: CD3(h10.v39)×TROP-2(RS7.v1) assembled in a human IgG1-Fc (Knobs-in-Holes) (bispecific antibody, not shown: a dimerising Fc or GST)
heavy: EVQLVQSGAEVKKPGASVKVSCKASGYTFTSYYTHWVRQAPGQGLEWIGWIYPGDFNTKFNEKFKGRVTLTADTSASTAYMELSSLRSEDTAVYYCARDHYGYYYFDYWGQGTLVTVSS
light: DIVMTQSPDSLAVSLGERATINCKSSQSLLNSRTRHNYLAWYQQKPGQPPKLLIYWATTRASGVPDRFSGSGSGTDFTLTISSLQAEDVAVYYCIQSYTGRTFGGGTKVEIK
VH: EVQLQQSGSELKKPGASVKVSCKASGYTFTNYGMNWVKQAPGQGLKWMGWINTYTGEPTYTDDFKGRFAFSLDTSVSTAYLQISSLKADDTAVYFCARGGFGSSYWYFDVWGQGSLVTVSS
VL: DIQLTQSPSSLSASVGDRVSITCKASQDVSIAVAWYQQKPGKAPKLLIYSASYRYTGVPDRFSGSGSGTDFTLTISSLQPEDFAVYYCQQHYITPLTFGAGTKVEIK
Take B1: in experiment [1], the percent killing of MDA-MB-468 cells at the pH 6.6 ECmax dose, pH 7.4 was 16% and the percent killing of TROP-2-high MDA-MB-468 cells, pH 6.6 stood at 100%.

B2: h10.v38 (Fab) (Fab, V domains shown)
VH: B1 heavy with T34Y
VL: B1 light
notes: Tested as a Fab
Regarding B2, the binding result in experiment [2] is reported as “binds”.

B3: CD3 (h10.v38)×TROP-2 (RS7.v1) hIgG1-Fc (KiH) (bispecific antibody, not shown: a dimerising Fc or GST)
heavy: B1 heavy with T34Y
light: B1 light
VH: B1 VH
VL: B1 VL
Consider B3, for which, in experiment [1], the T cell mediated killing of DU-145 cells, EC50, pH 6.9 stood at 144 nM; the T cell mediated killing of MDA-MB-468 cells, EC50, pH 6.6 was determined as 0.3 nM; the T cell mediated killing of MDA-MB-468 cells, EC50, pH 7.0 was found to be 9 nM; the T cell mediated killing of MDA-MB-468 cells, ECmax, pH 6.6 worked out at 30 nM. The same molecule came in with a fold reduction of MDA-MB-468 killing potency with human PBMCs (E:T about 5.5:1), pH 7.4 against pH 6.6 in experiment [1] of 80 fold.

B4: h10.v1 (Fab) (Fab, V domains shown)
VH: B1 heavy with T34V, H100A, G102S
VL: B1 light with H36K, A61D, G100T
notes: Tested as a Fab; the Fab constant domains are not; also called non-pH-selective conventional control clone; conventional anti-CD3 control antibody
As to B4, the binding result in experiment [2] and in experiment [3] was “binds” in each case.

B5: h10.v27 (Fab) (Fab, V domains shown)
VH: B1 heavy with T34Y
VL: B1 light with A61D
notes: Tested as a Fab
For the molecule B5, the binding result in experiment [2] was “binds”.

B6: h10.v23 (Fab) (Fab, V domains shown)
VH: B1 heavy with T34V
VL: B1 light
notes: Purified and used as a Fab; also called anti-CD3 clone h10.v23
Consider B6, for which the binding result in experiment [2] is reported as “binds”.

B7: h10.v49 (Fab) (Fab, V domains shown)
VH: B1 heavy with T34Y, G102H, Y103Q
VL: B1 light
notes: Tested as a Fab
For the molecule B7, the binding result in experiment [2] was “binds”.
